In patent US20250059270A1 (SESEN BIO, published 2025):

Tests used:
human IL-6 [1] = biological target: T1, human IL-6 (human, UniProt P05231 30-212); assay: cell-based or functional assay
rabbit IL-6 = biological target: T2, rabbit IL-6 (rabbit, UniProt Q9MZR1 27-241, limits assumed); assay: statement in the rabbit PK example; no assay named
T2 sequence (looked up): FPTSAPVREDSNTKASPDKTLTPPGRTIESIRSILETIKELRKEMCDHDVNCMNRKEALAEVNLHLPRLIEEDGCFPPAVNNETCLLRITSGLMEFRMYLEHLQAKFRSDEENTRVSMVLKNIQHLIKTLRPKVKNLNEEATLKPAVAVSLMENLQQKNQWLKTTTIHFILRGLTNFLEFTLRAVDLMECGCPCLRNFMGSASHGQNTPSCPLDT

human IL-6 [2] = biological target: T1, human IL-6; assay: cell-based or functional assay; remark: listed apart in the source
hyper IL-6 = assay: cell-based or functional assay
human IL-6 [3] = biological target: T1, human IL-6; assay: yeast surface display of Fab, flow cytometry (APC-A = bound biotinylated IL-6, FITC-A = display) after overnight competition with 2 µM IL-6
human IL-6 [4] = biological target: T1, human IL-6; assay: functional epitope mapping by ELISA

B1: EBI-029 IgG2 (antibody)
heavy: QVQLVQSGAEVKKPGSSVKVSCKASGYALSNYLIEWVRQAPGQGLEWMGVITPGSGTINYAQKFQGRVTITADESTSTAYMELSSLRSEDTAVYYCARSRWDPLYYYALEYWGQGTTVTVSSASTKGPSVFPLAPCSRSTSESTAALGCLVKDYFPEPVTVSWNSGALTSGVHTFPAVLQSSGLYSLSSVVTVPSSNFGTQTYTCNVDHKPSNTKVDKTVERKCCVECPPCPAPPVAGPSVFLFPPKPKDTLMISRTPEVTCVVVDVSHEDPEVQFNWYVDGVEVHNAKTKPREEQFNSTFRVVSVLTVVHQDWLNGKEYKCKVSNKGLPAPIEKTISKTKGQPREPQVYTLPPSREEMTKNQVSLTCLVKGFYPSDIAVEWESNGQPENNYKTTPPMLDSDGSFFLYSKLTVDKSRWQQGNVFSCSVMHEALHNHYTQKSLSLSPGK
light: DIVMTQSPDSLAVSLGERATINCRASESVDNYGIPFMNWYQQKPGQPPKLLIYAASNRGSGVPDRFSGSGSGTDFTLTISSLQAEDVAVYYCQQSEEVPLTFGQGTKLEIKRTVAAPSVFIFPPSDEQLKSGTASVVCLLNNFYPREAKVQWKVDNALQSGNSQESVTEQDSKDSTYSLSSTLTLSKADYEKHKVYACEVTHQGLSSPVTKSFNRGEC
notes: also called 018IgG2
IC50, HEK-Blue IL6 reporter cells, 20 pM IL-6 (human IL-6 [1]): 47 pM | binding result (rabbit IL-6): no binding

B2: EBI-029 IgG2-H311A (antibody)
heavy: QVQLVQSGAEVKKPGSSVKVSCKASGYALSNYLIEWVRQAPGQGLEWMGVITPGSGTINYAQKFQGRVTITADESTSTAYMELSSLRSEDTAVYYCARSRWDPLYYYALEYWGQGTTVTVSSASTKGPSVFPLAPCSRSTSESTAALGCLVKDYFPEPVTVSWNSGALTSGVHTFPAVLQSSGLYSLSSVVTVPSSNFGTQTYTCNVDHKPSNTKVDKTVERKCCVECPPCPAPPVAGPSVFLFPPKPKDTLMISRTPEVTCVVVDVSHEDPEVQFNWYVDGVEVHNAKTKPREEQFNSTFRVVSVLTVVAQDWLNGKEYKCKVSNKGLPAPIEKTISKTKGQPREPQVYTLPPSREEMTKNQVSLTCLVKGFYPSDIAVEWESNGQPENNYKTTPPMLDSDGSFFLYSKLTVDKSRWQQGNVFSCSVMHEALHNHYTQKSLSLSPGK
light: DIVMTQSPDSLAVSLGERATINCRASESVDNYGIPFMNWYQQKPGQPPKLLIYAASNRGSGVPDRFSGSGSGTDFTLTISSLQAEDVAVYYCQQSEEVPLTFGQGTKLEIKRTVAAPSVFIFPPSDEQLKSGTASVVCLLNNFYPREAKVQWKVDNALQSGNSQESVTEQDSKDSTYSLSSTLTLSKADYEKHKVYACEVTHQGLSSPVTKSFNRGEC
notes: also called EBI-029-H311A
binding result (rabbit IL-6): no binding

B3: EBI-030 IgG2 (antibody)
heavy: QVQLVQSGAEVKKPGSSVKVSCKASGYVLPNYLIEWVRQAPGQGLEWMGVTTPGGGTINYAQKFQGRVTITADESTSTAYMELSSLRSEDTAVYYCARSRWDPLYYYALEYWGQGTTVTVSSASTKGPSVFPLAPCSRSTSESTAALGCLVKDYFPEPVTVSWNSGALTSGVHTFPAVLQSSGLYSLSSVVTVPSSNFGTQTYTCNVDHKPSNTKVDKTVERKCCVECPPCPAPPVAGPSVFLFPPKPKDTLMISRTPEVTCVVVDVSHEDPEVQFNWYVDGVEVHNAKTKPREEQFNSTFRVVSVLTVVHQDWLNGKEYKCKVSNKGLPAPIEKTISKTKGQPREPQVYTLPPSREEMTKNQVSLTCLVKGFYPSDIAVEWESNGQPENNYKTTPPMLDSDGSFFLYSKLTVDKSRWQQGNVFSCSVMHEALHNHYTQKSLSLSPGK
light: DIVMTQSPDSLAVSLGERATINCRASESVDNYGIPFMNWYQQKPGQPPKLLIYAASNRGSGVPDRFSGSGSGTDFTLTISSLQAEDVAVYYCQQSEEVPLTFGQGTKLEIKRTVAAPSVFIFPPSDEQLKSGTASVVCLLNNFYPREAKVQWKVDNALQSGNSQESVTEQDSKDSTYSLSSTLTLSKADYEKHKVYACEVTHQGLSSPVTKSFNRGEC
IC50, fold less than that of EBI-029, HEK-Blue IL6 (EBI-030 produced in HEK cells) (human IL-6 [2]): > 50 fold | IC90, fold less than that of EBI-029, HEK-Blue IL6 (EBI-030 produced in HEK cells) (human IL-6 [2]): ~4000 fold | fold decrease in IC50 compared with EBI-029, HEK-Blue IL6 (human IL-6 [2]): ~50 fold | fold decrease in IC90 compared with EBI-029, HEK-Blue IL6 (human IL-6 [2]): > 100 fold | IC50, HEK-Blue IL6 reporter cells, 20 pM IL-6 (EBI-030 CHO, stable CHO pool) (human IL-6 [1]): 1.4 pM | IC50, HEK-Blue IL6 reporter cells, 20 pM IL-6 (EBI-030 from HEK-6E cells) (human IL-6 [1]): 0.9 pM | binding result (rabbit IL-6): no binding

B4: EBI-031 (EBI-030 IgG2-H311A) (antibody)
heavy: QVQLVQSGAEVKKPGSSVKVSCKASGYVLPNYLIEWVRQAPGQGLEWMGVTTPGGGTINYAQKFQGRVTITADESTSTAYMELSSLRSEDTAVYYCARSRWDPLYYYALEYWGQGTTVTVSSASTKGPSVFPLAPCSRSTSESTAALGCLVKDYFPEPVTVSWNSGALTSGVHTFPAVLQSSGLYSLSSVVTVPSSNFGTQTYTCNVDHKPSNTKVDKTVERKCCVECPPCPAPPVAGPSVFLFPPKPKDTLMISRTPEVTCVVVDVSHEDPEVQFNWYVDGVEVHNAKTKPREEQFNSTFRVVSVLTVVAQDWLNGKEYKCKVSNKGLPAPIEKTISKTKGQPREPQVYTLPPSREEMTKNQVSLTCLVKGFYPSDIAVEWESNGQPENNYKTTPPMLDSDGSFFLYSKLTVDKSRWQQGNVFSCSVMHEALHNHYTQKSLSLSPGK
light: DIVMTQSPDSLAVSLGERATINCRASESVDNYGIPFMNWYQQKPGQPPKLLIYAASNRGSGVPDRFSGSGSGTDFTLTISSLQAEDVAVYYCQQSEEVPLTFGQGTKLEIKRTVAAPSVFIFPPSDEQLKSGTASVVCLLNNFYPREAKVQWKVDNALQSGNSQESVTEQDSKDSTYSLSSTLTLSKADYEKHKVYACEVTHQGLSSPVTKSFNRGEC
notes: also called EBI-030-H311A
IC50, cis-signaling, HEK-Blue IL6 cells, 20 pM free IL-6 (human IL-6 [2]): 14.2 pM | IC50, fold less than that of EBI-029, HEK-Blue IL6 (human IL-6 [2]): > 75 fold | IC90, fold less than that of EBI-029, HEK-Blue IL6 (human IL-6 [2]): ~350 fold | fold decrease in IC50 compared with EBI-029, HEK-Blue IL6 (human IL-6 [2]): ~50 fold | fold decrease in IC90 compared with EBI-029, HEK-Blue IL6 (human IL-6 [2]): > 100 fold | fold greater potency than tocilizumab, cis-signaling, HEK-Blue IL6 cells (human IL-6 [2]): > 900 fold | IC50, trans-signaling, HEK-Blue IL6 cells, 200 pM hyper IL-6 (hyper IL-6): 32 pM | IC50, HEK-Blue IL6 reporter cells, 20 pM IL-6 (human IL-6 [1]): 0.6 pM | binding result (rabbit IL-6): no binding

B5: EBI-029 Fab variant I51T/S55G (Fab, V domains shown)
VH: QVQLVQSGAEVKKPGSSVKVSCKASGYALSNYLIEWVRQAPGQGLEWMGVTTPGGGTINYAQKFQGRVTITADESTSTAYMELSSLRSEDTAVYYCARSRWDPLYYYALEYWGQGTTVTVSS
VL: DIVMTQSPDSLAVSLGERATINCRASESVDNYGIPFMNWYQQKPGQPPKLLIYAASNRGSGVPDRFSGSGSGTDFTLTISSLQAEDVAVYYCQQSEEVPLTFGQGTKLEIKR
Fold increase in binding/display over wt (human IL-6 [3]): 1.92 fold

B6: EBI-030 Fab (A28V/S30P/I51T/S55G) (Fab, V domains shown)
VH: QVQLVQSGAEVKKPGSSVKVSCKASGYVLPNYLIEWVRQAPGQGLEWMGVTTPGGGTINYAQKFQGRVTITADESTSTAYMELSSLRSEDTAVYYCARSRWDPLYYYALEYWGQGTTVTVSS
VL: DIVMTQSPDSLAVSLGERATINCRASESVDNYGIPFMNWYQQKPGQPPKLLIYAASNRGSGVPDRFSGSGSGTDFTLTISSLQAEDVAVYYCQQSEEVPLTFGQGTKLEIKR
notes: IgG1 Fab; also called A28V/S30P/I51T/S55G (EBI-030)
Fold increase in binding/display over wt (human IL-6 [3]): 4 fold

B7: EBI-029 Fab (020 Fab) (Fab, V domains shown)
VH: QVQLVQSGAEVKKPGSSVKVSCKASGYALSNYLIEWVRQAPGQGLEWMGVITPGSGTINYAQKFQGRVTITADESTSTAYMELSSLRSEDTAVYYCARSRWDPLYYYALEYWGQGTTVTVSS
VL: DIVMTQSPDSLAVSLGERATINCRASESVDNYGIPFMNWYQQKPGQPPKLLIYAASNRGSGVPDRFSGSGSGTDFTLTISSLQAEDVAVYYCQQSEEVPLTFGQGTKLEIKR
notes: 018 Fab heavy chain with DKTHT added at the C-terminus; also called the 020 molecule; WT (EBI-029)
binding result (rabbit IL-6): no binding

B8: EBI-029 Fab variant A28V/I51T/S55G (Fab, V domains shown)
VH: QVQLVQSGAEVKKPGSSVKVSCKASGYVLSNYLIEWVRQAPGQGLEWMGVTTPGGGTINYAQKFQGRVTITADESTSTAYMELSSLRSEDTAVYYCARSRWDPLYYYALEYWGQGTTVTVSS
VL: DIVMTQSPDSLAVSLGERATINCRASESVDNYGIPFMNWYQQKPGQPPKLLIYAASNRGSGVPDRFSGSGSGTDFTLTISSLQAEDVAVYYCQQSEEVPLTFGQGTKLEIKR
Fold increase in binding/display over wt (human IL-6 [3]): 3.1 fold

B9: EBI-029 Fab variant S30P/I51T/S55G (Fab, V domains shown)
VH: QVQLVQSGAEVKKPGSSVKVSCKASGYALPNYLIEWVRQAPGQGLEWMGVTTPGGGTINYAQKFQGRVTITADESTSTAYMELSSLRSEDTAVYYCARSRWDPLYYYALEYWGQGTTVTVSS
VL: DIVMTQSPDSLAVSLGERATINCRASESVDNYGIPFMNWYQQKPGQPPKLLIYAASNRGSGVPDRFSGSGSGTDFTLTISSLQAEDVAVYYCQQSEEVPLTFGQGTKLEIKR
Fold increase in binding/display over wt (human IL-6 [3]): 2.52 fold

B10: murine 64 antibody (hybridoma 64, subclone 64.58) (antibody, V domains shown)
VH: QVQLQQSGAELVRPGTSVKVSCKASGYAFSNYLIEWVKQRPGQGLEWIGVITPGSGTINYNEKFKGKAVLTADKSSSTVYMQLSSLTSDDSAVYFCAKSRWDPLYYYALEYWGQGTSVTVSS
VL: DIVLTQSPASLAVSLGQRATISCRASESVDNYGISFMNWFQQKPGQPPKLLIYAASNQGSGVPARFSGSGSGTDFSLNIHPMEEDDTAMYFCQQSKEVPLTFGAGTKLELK
notes: Murine monoclonal from a hybridoma; also called m64
binding result (human IL-6 [4]): binds
